From PMC3115021, “Dynamics of Cdk1 Substrate Specificity during the Cell Cycle” (Molecular Cell, 2011)

Assays:
Assay in all cases: Quantitative phosphorylation assay of T33-Sic1ΔC constructs and recombinant substrates
Assay type in all cases: biochemical
Details in all cases: Table S2; purified protein substrate; relative values, not divided by [S]
[1] = target: T1, Clb5-Cdk1 (Saccharomyces cerevisiae, UniProt P00546+P30283)
T1 construct: We purified the four cyclin-Cdk1 complexes from yeast; made in house; host or cells: S. cerevisiae strain DOM0076 (gal-CLB5-TAP, sic1 deleted); Cks1 from bacteria
T1 sequence (P00546 2-298 limits assumed): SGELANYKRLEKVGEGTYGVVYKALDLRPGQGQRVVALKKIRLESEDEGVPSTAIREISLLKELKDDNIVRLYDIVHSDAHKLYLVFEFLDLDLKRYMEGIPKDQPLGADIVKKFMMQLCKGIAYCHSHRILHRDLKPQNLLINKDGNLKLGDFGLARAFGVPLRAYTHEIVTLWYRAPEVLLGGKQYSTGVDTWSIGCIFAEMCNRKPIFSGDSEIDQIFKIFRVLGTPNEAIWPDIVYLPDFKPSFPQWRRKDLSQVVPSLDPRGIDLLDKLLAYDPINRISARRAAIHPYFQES
T1 sequence (P30283 whole entry partner): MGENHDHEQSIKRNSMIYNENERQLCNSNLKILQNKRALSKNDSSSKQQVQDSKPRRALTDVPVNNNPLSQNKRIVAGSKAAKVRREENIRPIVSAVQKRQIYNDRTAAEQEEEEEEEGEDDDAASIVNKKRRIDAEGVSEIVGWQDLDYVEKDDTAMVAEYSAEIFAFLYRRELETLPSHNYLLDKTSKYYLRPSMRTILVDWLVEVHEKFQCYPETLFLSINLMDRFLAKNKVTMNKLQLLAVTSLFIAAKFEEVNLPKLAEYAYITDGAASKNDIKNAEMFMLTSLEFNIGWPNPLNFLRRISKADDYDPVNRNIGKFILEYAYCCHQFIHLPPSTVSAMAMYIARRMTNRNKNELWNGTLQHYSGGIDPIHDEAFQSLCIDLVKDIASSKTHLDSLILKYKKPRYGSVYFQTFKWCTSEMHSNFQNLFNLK
T1 sequence (P20486 whole entry partner): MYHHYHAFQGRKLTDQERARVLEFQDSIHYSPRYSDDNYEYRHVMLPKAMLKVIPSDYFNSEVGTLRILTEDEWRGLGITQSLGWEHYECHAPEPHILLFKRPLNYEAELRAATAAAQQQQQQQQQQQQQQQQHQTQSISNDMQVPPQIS

[2] = target: T2, Clb2-Cdk1 (Saccharomyces cerevisiae, UniProt P00546+P24869)
T2 construct: We purified the four cyclin-Cdk1 complexes from yeast; made in house; host or cells: S. cerevisiae strain DOM0077 (gal-CLB2-TAP, sic1 deleted); Cks1 from bacteria
T2 sequence (P00546 2-298 limits assumed): as the sequence (P00546 2-298 limits assumed) above
T2 sequence (P24869 2-491 partner limits assumed): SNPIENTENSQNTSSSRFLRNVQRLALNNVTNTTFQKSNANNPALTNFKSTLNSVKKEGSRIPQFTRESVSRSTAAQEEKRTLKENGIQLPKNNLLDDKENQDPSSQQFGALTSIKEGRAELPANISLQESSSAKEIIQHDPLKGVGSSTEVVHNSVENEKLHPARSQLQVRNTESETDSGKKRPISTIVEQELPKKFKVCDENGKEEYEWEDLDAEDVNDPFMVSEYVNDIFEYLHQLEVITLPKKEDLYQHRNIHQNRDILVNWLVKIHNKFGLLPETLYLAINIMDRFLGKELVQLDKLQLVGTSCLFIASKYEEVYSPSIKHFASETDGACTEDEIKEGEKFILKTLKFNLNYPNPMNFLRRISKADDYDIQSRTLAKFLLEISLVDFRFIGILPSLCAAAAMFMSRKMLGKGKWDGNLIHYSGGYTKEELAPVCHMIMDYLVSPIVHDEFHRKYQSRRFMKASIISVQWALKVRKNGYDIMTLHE
T2 sequence (P20486 whole entry partner): as the sequence (P20486 whole entry partner) above

[3] = target: T3, Clb3-Cdk1 (Saccharomyces cerevisiae, UniProt P00546+P24870)
T3 construct: We purified the four cyclin-Cdk1 complexes from yeast; made in house; host or cells: S. cerevisiae strain DOM0957 (gal-CLB3-TAP, sic1 deleted); Cks1 from bacteria
T3 sequence (P00546 2-298 limits assumed): as the sequence (P00546 2-298 limits assumed) above
T3 sequence (P24870 whole entry partner): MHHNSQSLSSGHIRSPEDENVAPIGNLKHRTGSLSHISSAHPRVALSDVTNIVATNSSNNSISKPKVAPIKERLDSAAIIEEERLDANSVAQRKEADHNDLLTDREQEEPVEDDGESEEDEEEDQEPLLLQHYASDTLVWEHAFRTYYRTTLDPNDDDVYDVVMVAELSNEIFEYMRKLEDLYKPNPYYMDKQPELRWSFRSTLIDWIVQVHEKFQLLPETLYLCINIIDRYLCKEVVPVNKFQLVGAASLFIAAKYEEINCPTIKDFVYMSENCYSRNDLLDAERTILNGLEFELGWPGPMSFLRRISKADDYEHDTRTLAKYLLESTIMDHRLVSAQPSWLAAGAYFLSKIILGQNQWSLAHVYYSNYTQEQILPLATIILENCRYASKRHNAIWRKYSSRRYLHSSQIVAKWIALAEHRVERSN
T3 sequence (P20486 whole entry partner): as the sequence (P20486 whole entry partner) above

[4] = target: T4, Cln2-Cdk1 (Saccharomyces cerevisiae, UniProt P00546+P20438)
T4 construct: We purified the four cyclin-Cdk1 complexes from yeast; made in house; host or cells: S. cerevisiae strain DMY305 (galactose-induced); Cks1 from bacteria
T4 sequence (P00546 2-298 limits assumed): as the sequence (P00546 2-298 limits assumed) above
T4 sequence (P20438 whole entry partner): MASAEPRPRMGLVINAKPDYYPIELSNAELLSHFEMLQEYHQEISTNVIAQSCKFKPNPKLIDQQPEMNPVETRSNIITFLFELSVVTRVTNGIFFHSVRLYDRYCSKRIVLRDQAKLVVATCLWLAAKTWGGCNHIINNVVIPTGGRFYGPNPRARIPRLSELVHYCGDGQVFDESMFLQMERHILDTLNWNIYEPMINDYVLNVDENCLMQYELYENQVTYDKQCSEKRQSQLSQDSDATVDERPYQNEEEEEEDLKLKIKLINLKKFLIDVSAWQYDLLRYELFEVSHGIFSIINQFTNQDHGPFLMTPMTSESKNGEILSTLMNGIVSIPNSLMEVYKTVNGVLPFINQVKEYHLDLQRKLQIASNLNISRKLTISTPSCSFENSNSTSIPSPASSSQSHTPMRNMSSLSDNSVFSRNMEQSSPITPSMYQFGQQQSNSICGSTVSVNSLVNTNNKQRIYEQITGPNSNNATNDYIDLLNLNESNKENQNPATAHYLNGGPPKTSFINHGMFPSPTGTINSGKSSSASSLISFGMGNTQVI
T4 sequence (P20486 whole entry partner): as the sequence (P20486 whole entry partner) above

[5] = target: T5, Clb2hpm-Cdk1 (Saccharomyces cerevisiae, UniProt P00546)
T5 construct: made in house; host or cells: S. cerevisiae strain DOM0964 (gal-CLB2hpm-TAP, sic1 deleted); Cks1 from bacteria
T5 sequence (P00546 2-298 limits assumed): as the sequence (P00546 2-298 limits assumed) above
Summary of the method: (§1)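 Yeast cyclin-Cdk1 complexes (1–10 nM, TAP-purified) phosphorylated 6His-T33-Sic1ΔC (other S/T-P sites mutated to Ala-Ala) or recombinant substrates at 0.5–2 μM, below KM, with 32P-γ-ATP. Initial velocities (≤10% turnover) from two or more time points, SDS-PAGE stopped; relative kcat/KM from v0 ratios.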

[6] = target: T6, Clb3hpm-Cdk1 (Saccharomyces cerevisiae, UniProt P00546+P24870)
T6 construct: made in house; host or cells: S. cerevisiae strain MK0168 (gal-CLB3hpm-TAP, sic1 deleted); Cks1 from bacteria
Summary of the method: as §1

[7] = target: T7, Clb5hpm-Cdk1 (Saccharomyces cerevisiae, UniProt P00546)
T7 construct: made in house; host or cells: S. cerevisiae strain DOM0963 (gal-CLB5hpm-TAP, sic1 deleted); Cks1 from bacteria
T7 sequence (P00546 2-298 limits assumed): as above
Summary of the method: as §1

B1: SWI5: purified yeast protein tested as Cdk1 substrate (protein, UniProt P08153 1-709, looked up)
Transcriptional factor SWI5: MDTSNSWFDASKVQSLNFDLQTNSYYSNARGSDPSSYAIEGEYKTLATDDLGNILNLNYGETNEVIMNEINDLNLPLGPLSDEKSVKVSTFSELIGNDWQSMNFDLENNSREVTLNATSLLNENRLNQDSGMTVYQKTMSDKPHDEKKISMADNLLSTINKSEINKGFDRNLGELLLQQQQELREQLRAQQEANKKLELELKQTQYKQQQLQATLENSDGPQFLSPKRKISPASENVEDVYANSLSPMISPPMSNTSFTGSPSRRNNRQKYCLQRKNSSGTVGPLCFQELNEGFNDSLISPKKIRSNPNENLSSKTKFITPFTPKSRVSSATSNSANITPNNLRLDFKINVEDQESEYSEKPLGLGIELLGKPGPSPTKSVSLKSASVDIMPTIPGSVNNTPSVNKVSLSSSYIDQYTPRGKQLHFSSISENALGINAATPHLKPPSQQARHREGVFNDLDPNVLTKNTDNEGDDNEENEPESRFVISETPSPVLKSQSKYEGRSPQFGTHIKEINTYTTNSPSKITRKLTTLPRGSIDKYVKEMPDKTFECLFPGCTKTFKRRYNIRSHIQTHLEDRPYSCDHPGCDKAFVRNHDLIRHKKSHQEKAYACPCGKKFNREDALVVHRSRMICSGGKKYENVVIKRSPRKRGRPRKDGTSSVSSSPIKENINKDHNGQLMFKLEDQLRRERSYDGNGTGIMVSPMKTNQR
[1]
  kcat/KM, Clb5: 0.475 relative units
[2]
  kcat/KM, Clb2: 2.961 relative units
[3]
  kcat/KM, Clb3: 1.686 relative units
[4]
  kcat/KM, Cln2: 0.178 relative units
[5]
  kcat/KM, Clb2hpm: 1.387 relative units
[6]
  kcat/KM, Clb3hpm: 0.207 relative units
[7]
  kcat/KM, Clb5hpm: 0.172 relative units

B2: YHP1: purified yeast protein tested as Cdk1 substrate (protein, UniProt Q04116 1-353, looked up)
Homeobox protein YHP1: MESRNTVLPSLPNIITGTSNSPFQLHTLPNTNFPSDDQGDIRLPPLAASAHIVRPVVNIYKSPCDEERPKRKSPQAVDFLSQRVTTSMTPLSKPKKLSSHSPFTPTVRVCSKEQPPQSMHSYKKVNILTPLSAAKAVLTPTTRKEKKRSFAFITHSQETFPKKEPKIDNARLARRKRRRTSSYELGILQTAFDECPTPNKAKRIELSEQCNMSEKSVQIWFQNKRQAAKKHKNSGNTSHCKVHSNDSMSMISYSDAALEITSTPTSTKEAITAELLKTSPANTSSIFEDHHITPCKPGGQLKFHRKSVLVKRTLSNTGHSEIIKSPKGKENRLKFNAYERKPLGEVDLNSFKN
[1]
  kcat/KM, Clb5: 0.020 relative units
[2]
  kcat/KM, Clb2: 0.385 relative units
[3]
  kcat/KM, Clb3: 0.066 relative units
[4]
  kcat/KM, Cln2: 0.524 relative units
[5]
  kcat/KM, Clb2hpm: 0.046 relative units
[6]
  kcat/KM, Clb3hpm: 0.009 relative units
[7]
  kcat/KM, Clb5hpm: 0.002 relative units

B3: TOS4: putative transcription factor, tested as Cdk1 substrate (protein, UniProt Q06266 1-489, looked up)
Protein TOS4: MSSQFPSSPYRTVDPYSPPNYKQQPNCPSSNYEKAGKTASESIGNFGKGDYPTPFPSSSIGRVSSPVRSNKVDAIPSSPAFPGQLAETSPKFSSKLSSPSRHTRVINAELDPSKISTITVGRNSSQCDVALCKNKFISRVHASITYLPQTNEVKIHCFSMNGLIVTYRKQFDCYQLKDTMNNNNRAYRLVPRFSNEKCVKEIQDEGGFINFTLEEGDTVYMTYYKGIMLDFRQVLLRISLKEKNSSSEPLRFEKKAEFESESETKHMGSIRKHPLIFTDTSMDRPKKILKDSNKISIGSDSGVAERMLNHFLNSKSSPLSSVSSVDHEEQTLRQDSLSSDKNPMTMKKPKLNKRVLPSKPKKSVKENLDELSRRNIDVMHLQHILTNHLAFANVQQTPLFQLQQVNSQISELSRDELRSILSDAKCVGVIYRHGKDAAGKPLDEEYFYDLENDDDYERRNLVSSLKGGRTGLRSCRRTHKQYFWKKPAK
[1]
  kcat/KM, Clb5: 0.502 relative units
[2]
  kcat/KM, Clb2: 2.373 relative units
[3]
  kcat/KM, Clb3: 8.484 relative units
[4]
  kcat/KM, Cln2: 0.708 relative units
[5]
  kcat/KM, Clb2hpm: 2.136 relative units
[6]
  kcat/KM, Clb3hpm: 2.397 relative units
[7]
  kcat/KM, Clb5hpm: 0.593 relative units

B4: WHI5: repressor of the G1-specific SBF transcription factor, tested as Cdk1 substrate (protein, UniProt Q12416 1-295, looked up)
G1-specific transcriptional …: MSLRTPKRSRTSDEQEQEQEQEQVQNPDTHVNNEHQQRPGPTTLLSTPVRLKNGFGTPSPPSPPGITKSITKSRRRPSTTSLQGIFMSPVNKRRVGITAHGRVYDHNDDGHESESEDDENEEENENQKKYDGHVSMPLLPPTTPKSRRSEVFLSPSPRLRSPPTAARRSTGERPIREISHTLRTRLNYALVKLQNGWTDKTLPELETELAPAVQTPPRRYHNRFPDSADAGTSAHTAFLQALGGHPPREEATAVETLMLLSSPTKKQQHRPVPATSAGEPTDETEPESDTEVETS
[1]
  kcat/KM, Clb5: 0.016 relative units
[2]
  kcat/KM, Clb2: 0.046 relative units
[3]
  kcat/KM, Clb3: 0.033 relative units
[4]
  kcat/KM, Cln2: 0.283 relative units
[5]
  kcat/KM, Clb2hpm: 0.027 relative units
[6]
  kcat/KM, Clb3hpm: 0.006 relative units
[7]
  kcat/KM, Clb5hpm: 0.001 relative units

B5: SWI6: cell cycle-related transcription factor, tested as Cdk1 substrate (protein, UniProt P09959 1-803, looked up)
Regulatory protein SWI6: MALEEVVRYLGPHNEIPLTLTRDSETGHFLLKHFLPILQQYHDTGNINETNPDSFPTDEERNKLLAHYGIAVNTDDRGELWIELEKCLQLLNMLNLFGLFQDAFEFEEPETDQDEEDPSHSKLPENKTKSENSKDNISSKRINNLQDMSLDSDAHRELGSPLKKLKIDTSVIDAESDSTPNTARGKPNDDINKGPSGDNENNGTDDNDRTAGPIITFTHDLTSDFLSSPLKIMKALPSPVVNDNEQKMKLEAFLQRLLFPEIQEMPTSLNNDSSNRNSEGGSSNQQQQHVSFDSLLQEVNDAFPNTQLNLNIPVDEHGNTPLHWLTSIANLELVKHLVKHGSNRLYGDNMGESCLVKAVKSVNNYDSGTFEALLDYLYPCLILEDSMNRTILHHIIITSGMTGCSAAAKYYLDILMGWIVKKQNRPIQSGTNEKESKPNDKNGERKDSILENLDLKWIIANMLNAQDSNGDTCLNIAARLGNISIVDALLDYGADPFIANKSGLRPVDFGAGTSKLQNTNGGDENSKMVSKGDYDGQKNGKAKKIRSQLLKNPPETTSLINDVQNLLNSISKDYENETVQYNEKLEKLHKELNEQREELANSREQLANVKQLKDEYSLMQEQLTNLKAGIEEEEESFREESKKLGIIADESSGIDWDSSEYDADEPFKVEFLSDFLEDKLQKNYEGDISKLLEAESKEQIMEQIRNQLPAEKIQSMLPPTVLLKARINAYKRNDKHLTNVLDTISTKQSELENKFRRVLSLCLKIDENKVDNMLDGLLQAISSEDPQDIDTDEMQDFLKKHAS
[1]
  kcat/KM, Clb5: 0.118 relative units
[2]
  kcat/KM, Clb2: 0.412 relative units
[3]
  kcat/KM, Clb3: 0.105 relative units
[4]
  kcat/KM, Cln2: 0.004 relative units
[5]
  kcat/KM, Clb2hpm: 0.481 relative units
[6]
  kcat/KM, Clb3hpm: 0.075 relative units
[7]
  kcat/KM, Clb5hpm: 0.058 relative units

B6: XBP1: purified yeast protein tested as Cdk1 substrate (protein, UniProt P40489 1-647, looked up)
Transcriptional repressor XBP1: MKYPAFSINSDTVHLTDNPLDDYQRLYLVSVLDRDSPPASFSAGLNIRKVNYKSSIAAQFTHPNFIISARDAGNGEEAAAQNVLNCFEYQFPNLQTIQSLVHEQTLLSQLASSATPHSALHLHDKNILMGKIILPSRSNKTPVSASPTKQEKKALSTASRENATSSLTKNQQFKLTKMDHNLINDKLINPNNCVIWSHDSGYVFMTGIWRLYQDVMKGLINLPRGDSVSTSQQQFFCKAEFEKILSFCFYNHSSFTSEESSSVLLSSSTSSPPKRRTSTGSTFLDANASSSSTSSTQANNYIDFHWNNIKPELRDLICQSYKDFLINELGPDQIDLPNLNPANFTKRIRGGYIKIQGTWLPMEISRLLCLRFCFPIRYFLVPIFGPDFPKDCESWYLAHQNVTFASSTTGAGAATAATAAANTSTNFTSTAVARPRQKPRPRPRQRSTSMSHSKAQKLVIEDALPSFDSFVENLGLSSNDKNFIKKNSKRQKSSTYTSQTSSPIGPRDPTVQILSNLASFYNTHGHRYSYPGNIYIPQQRYSLPPPNQLSSPQRQLNYTYDHIHPVPSQYQSPRHYNVPSSPIAPAPPTFPQPYGDDHYHFLKYASEVYKQQNQRPAHNTNTNMDTSFSPRANNSLNNFKFKTNSKQ
[1]
  kcat/KM, Clb5: 0.020 relative units
[2]
  kcat/KM, Clb2: 0.103 relative units
[3]
  kcat/KM, Clb3: 0.065 relative units
[4]
  kcat/KM, Cln2: 0.200 relative units
[5]
  kcat/KM, Clb2hpm: 0.084 relative units
[6]
  kcat/KM, Clb3hpm: 0.013 relative units
[7]
  kcat/KM, Clb5hpm: 0.007 relative units
